Reference: patent publication US20240025993A1, “CD19 BINDING MOLECULES AND USES THEREOF” (NOVARTIS AG, priority 2020, published 2024)

T1: human CD19 (Homo sapiens, UniProt P15391)
T1 construct: expressed in transfected cells; host or cells: mouse cell line 300.19
T1 sequence (P15391 20-556): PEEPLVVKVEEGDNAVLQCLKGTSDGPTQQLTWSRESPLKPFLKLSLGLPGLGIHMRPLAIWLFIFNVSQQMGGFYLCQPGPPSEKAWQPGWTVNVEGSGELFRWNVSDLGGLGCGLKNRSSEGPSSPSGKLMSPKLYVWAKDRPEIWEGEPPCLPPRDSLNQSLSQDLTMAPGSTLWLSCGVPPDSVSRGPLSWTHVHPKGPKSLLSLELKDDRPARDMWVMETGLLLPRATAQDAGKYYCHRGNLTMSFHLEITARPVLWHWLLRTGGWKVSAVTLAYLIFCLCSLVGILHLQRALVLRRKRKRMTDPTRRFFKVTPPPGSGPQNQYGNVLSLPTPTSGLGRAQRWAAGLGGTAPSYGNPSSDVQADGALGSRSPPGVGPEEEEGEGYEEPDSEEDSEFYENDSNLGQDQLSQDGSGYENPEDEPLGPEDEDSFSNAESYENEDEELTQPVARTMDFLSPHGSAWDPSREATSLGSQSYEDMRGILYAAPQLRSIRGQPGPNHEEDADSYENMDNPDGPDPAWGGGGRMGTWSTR

B1: DAPASK-IgG1: anti-CD3 IgG1 with D265A/P329A/S267K (antibody)
heavy: EVQLVESGGGLVQPGGSLKLSCAASGFTFNTYAMNWVRQASGKGLEWVGRIRSKYNNYATYYADSVKDRFTISRDDSKSTLYLQMNSLKTEDTAVYYCVRHGNFGNSYVSWFAYWGQGTLVTVSSASTKGPSVFPLAPSSKSTSGGTAALGCLVKDYFPEPVTVSWNSGALTSGVHTFPAVLQSSGLYSLSSVVTVPSSSLGTQTYICNVNHKPSNTKVDKRVEPKSCDKTHTCPPCPAPELLGGPSVFLFPPKPKDTLMISRTPEVTCVVVAVKHEDPEVKFNWYVDGVEVHNAKTKPREEQYNSTYRVVSVLTVLHQDWLNGKEYKCKVSNKALAAPIEKTISKAKGQPREPQVYTLPPSRDELTKNQVSLTCLVKGFYPSDIAVEWESNGQPENNYKTTPPVLDSDGSFFLYSKLTVDKSRWQQGNVFSCSVMHEALHNHYTQKSLSLSPGK
light: QAVVTQEPSLTVSPGGTVTLTCRSSTGAVTTSNYANWVQQKPGQAPRGLIGGTNKRAPWTPARFSGSLLGDKAALTLSGAQPEDEAEYFCALWYSNLWVFGGGTKLTVLGQPKAAPSVTLFPPSSEELQANKATLVCLISDFYPGAVTVAWKADSSPVKAGVETTTPSKQSNNKYAASSYLSLTPEQWKSHRSYSCQVTHEGSTVEKTVAPTECS
B2: NEG258: CD19 antibody/binder; VH SEQ ID NO:13, VL SEQ ID NO:26 (antibody, V domains shown)
VH: QVQLVQSGAEVKKPGASVKVSCKASGYTFTTYWIQWVRQAPGQRLEWMGAVYPGDADTRYTQKFQGRVTLTADRSASTAYMELSSLRSEDTAVYYCGRDAGLEYYALDYWGQGTLVTVSS
VL: EIVMTQSPATLSVSPGERATLSCRASQDVGTAVAWYQQKPGQAPRLLIYWASTRHTGIPARFSGSGSGTEFTLTISSLQSEDFAVYFCQQYANFPLYTFGQGTKLEIK

Experiments:
[1] = biological target: human FcγR1A (Homo sapiens, UniProt P12314); test: SPR binding of Fc modified anti-CD3 IgG1 antibodies (Example 34); conditions: anti-CD3 IgG1 antibody immobilized
Protocol: Surface plasmon resonance (SPR) experiments were performed to analyze the interaction of human activating receptors FcγR1A, FcγR3A (V158) and human C1q with IgG1 WT and antibody-Fc variants. Binding kinetics and their relative binding affinities were explored. The binding affinity is an important characteristic of an interaction between an antibody and an antigen. The equilibrium dissociation constant (KD) defines how strong the interaction is and therefore how much antibody-antigen complex is formed at equilibrium.
The knowledge of the antibody characteristics is not only essential during selection of the best therapeutic antibody candidate, but also important to understand the in vivo behavior and potentially predict cellular immune responses. […] Binding to human C1q was evaluated. […] SPR measurements were measured on a Biacore T200 (GE-Healthcare Life Sciences) controlled by Biacore T200 control software version 2.0.1. […]
The antibodies were covalently immobilized on a CM5 sensor chip whereas Fc gamma receptors or human C1q served as analytes in solution (FIG. 38). […] Zero concentration samples (blank runs) were measured for both methods to allow double-referencing during data evaluation.
Data were evaluated using the Biacore T200 evaluation software. […] In addition, the maximum response reached during the experiment was monitored. […]

[2] = Differential scanning calorimetry, melting temperature of Fc modified anti-CD3 antibodies (Example 35); format: physicochemical; conditions: DSC, 1 mg/ml in PBS pH 7.4, anti-CD3 IgG1 Fc variants
Protocol: Calorimetric measurements were carried out on a differential scanning micro calorimeter (Nano DSC, TA instruments). The cell volume was 0.5 ml and the heating rate was 1° C./min. All proteins were used at a concentration of 1 mg/m in PBS (pH 7.4). The molar heat capacity of each protein was estimated by comparison with duplicate samples containing identical buffer from which the protein had been omitted. The partial molar heat capacities and melting curves were analyzed using standard procedure. Thermograms were baseline corrected and concentration normalized.

[3] = Aggregation propensity (% HMW) by analytical SEC of IgG1 anti-CD3 antibody and Fc variants (Example 35); format: physicochemical; conditions: PBS pH 7.4, anti-CD3 antibodies
Protocol: Size exclusion chromatography measurements were performed to evaluate the aggregation propensity (% HMW) of IgG1 antibody and Fc modified derivatives. The produced and purified anti CD3 antibodies were applied to an analytical size exclusion chromatography column (SEC 200, GE Healthcare), equilibrated with PBS buffer pH 7.4.

[4] = biological target: T1, human CD19; test: Binding of TBMs to 300.19 cells overexpressing human CD19 (Example 11); conditions: flow cytometry, R variants
Protocol: (§1) The mouse cell line 300.19 was engineered to overexpress either human CD19 or cyno CD19. Cells were cultured in RPMI medium (Invitrogen #11875-093) with 10% FBS and 2-mercaptoethanol. Cells were harvested and resuspended in FACS buffer (PBS containing 1% FBS). 50,000 cells per well were plated in a V-bottom 96-well plate. Each cell line was incubated with serial dilutions of TBMs of Example 1A (i.e., R variants) for one hour on ice. Cells were centrifuged for 4 min at 400×g and washed with FACS buffer. This was repeated twice, and then the cells were incubated with Alexa-647 labeled anti-human Fc secondary antibody (Jackson Immuno #109-605-098) for 30 min on ice. The cells were washed twice, then resuspended in 100 μL of FACS buffer. FACS data was collected on a Beckman Coulter Cytoflex and analysis was performed using CytExpert v2.3.

[5] = system: cyno CD19; test: Binding of TBMs to 300.19 cells overexpressing cyno CD19 (Example 11); conditions: flow cytometry, R variants
Protocol: as §1

Chain of human FcγR1A (P12314 16-374): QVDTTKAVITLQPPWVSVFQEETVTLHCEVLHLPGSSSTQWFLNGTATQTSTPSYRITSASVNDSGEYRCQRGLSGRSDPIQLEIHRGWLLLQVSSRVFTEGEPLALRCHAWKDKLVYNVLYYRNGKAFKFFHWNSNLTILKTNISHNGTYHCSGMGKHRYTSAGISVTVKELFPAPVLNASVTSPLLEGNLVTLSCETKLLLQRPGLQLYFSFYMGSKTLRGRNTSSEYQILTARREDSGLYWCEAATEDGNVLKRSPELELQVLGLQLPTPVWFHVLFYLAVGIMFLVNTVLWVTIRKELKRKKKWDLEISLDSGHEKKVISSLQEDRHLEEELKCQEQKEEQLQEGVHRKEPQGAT

Molecule	Maximum response at 100 nM hFcgammaRIA (RU) [1] [RU]	Melting temperature (Tm) of CH2 domain [2] [°C]	(%) higher molecular weight [3] [%]	binding to cells overexpressing human CD19 [4]	binding to cells overexpressing cyno CD19 [5]
B1	13	65	3.6	–	–
B2	–	–	–	greater affinity for both human CD19 and cyno CD19	greater affinity for both human CD19 and cyno CD19
